Where a chain is given by its changes, count along the chain named.
B1: mAb004c (antibody, V domains shown)
VH: EVQLVESGGGLVQPKGSLKLSCAASGFTFNTYAMHWVRQAPGKGLEWVARIRSKSSNFATYYADSVRDRFTISRDDSQSMLYLQMNNLKTEDTAMYYCVRGYGPSYFSLDYWGQGTSVTVSS
VL: DVVMTQTPLSLPVSLGDQASISCRSSQSLVHSNGNTYLHWYLQKPGQSPKLLIYKVSNRFSGVPDRFSGSGSGTDFTLKINRVEAEDLGVYFCSQSTHAIYTFGGGTKLEIK
notes: Human-mouse chimeric
B2: mAb007c (antibody, V domains shown)
VH: EVQLQQSGPELVKPGASVKMSCKASGYTFTDYNMHWVKQSHGKSLEWIGYINPNNGGTSYNQKFKGKATLTVNKSSSTAYMELRSLTSDDSAVYYCARRGYGSGYAMDYWGQGTSVTVSS
VL: DVLMTQTPLSLPVSLGDQASISCRSSQSIVHTNGNTYLEWYLQNPGQSPKLLIYKVFNRFSGVPDRFSGSGSGTDFTLKISRVEAEDLGVYYCFQGSLFPYTFGGGTKLEIK
notes: Human-mouse chimeric
B3: mAb001c (antibody, V domains shown)
VH: EVRLQQSGPVLVKPGASVKMSCKASGYTFTDYNLHWVKQSHRQSLEWIGYINPNHDGTSYNQKFQGKATLTVDRSSSTAYMEFRSLTSEDSAVYYCARRVRTGTGLDDWGQGTTLTVSS
VL: B2 VL with T7S, Q27H, S28N, N44K, F57S, D75Y, K79T, L98R
notes: Human-mouse chimeric; also called human-mouse chimeric antibody mAb001c
B4: mAb006c (antibody, V domains shown)
VH: B2 VH with V18L, T30P, M34I, S59T, N73S, D89E, Y95S, G104S, G111A
VL: B2 VL with T7S, Q27H, S28I, N44K, F57S, L98R, F99V
notes: Human-mouse chimeric
B5: mAb008c (antibody, V domains shown)
VH: B2 VH with G26E, S59T, T114A
VL: B2 VL with M4L, Q18R, R24T, F57S
notes: Human-mouse chimeric
B6: mAb009c (antibody, V domains shown)
VH: EVQLQQSGPELVKPGASLKLSCKASGYTFPDYNIHWVKQSHGKSLEWIGYINPNNGNTNYNQKFEGKATLTVSKSSSTAYMELRSLTSDDSAVYSCARRGYGSSYAMDFWGQGTSVTVSS
VL: B2 VL with D17N, Q27H, S28I, N44K, F57S, L98R, F99V
notes: Human-mouse chimeric
B7: UC-961 (antibody, V domains shown)
VH: QVQLQESGPGLVKPSQTLSLTCTVSGYAFTAYNIHWVRQAPGQGLEWMGSFDPYDGGSSYNQKFKDRLTISKDTSKNQVVLTMTNMDPVDTATYYCARGWYYFDYWGHGTLVTVSS
VL: DIVMTQTPLSLPVTPGEPASISCRASKSISKYLAWYQQKPGQAPRLLIYSGSTLQSGIPPRFSGSGYGTDFTLTINNIESEDAAYYFCQQHDESPYTFGEGTKVEIK
notes: Control antibody of US20150232569A1, made with human IgG1 heavy chain constant region and Kappa chain constant region
B8: mAb003c (antibody, V domains shown)
VH: EVQLVESGGGLVKPGGSLKLSCAASGFTFSSYAMSWVRQTPEKRLEWVATISDGGSYTYYPDSVKGRFTISRDNAKNNLYLQMSHLKSEDTDMYYCVRGGYYYNLYAMDYWGQGTSVTVSS
VL: DIVLTQSPASLAVSLGQRAIISCKASQSVSFAGTSLMHWYQQKPGQQPKLLIYRASNLEAGVPTRFSGSGSRADFTLNIHPVEEDDAATYYCQQSGEYPWTFGGGTKLEIK
notes: Human-mouse chimeric
B9: mAb005c (antibody, V domains shown)
VH: B8 VH with S30N, S63N, V64E, D92A, M93I
VL: B8 VL with A32P, A73T, A87T, G96R, K107Q
notes: Human-mouse chimeric
B10: mAb001c-vcMMAE (antibody, human IgG1, DAR about 3.81, V domains shown)
VH: B3 VH
VL: B2 VL with T7S, Q27H, S28N, N44K, F57S, D75Y, K79T, L98R
modifications: vcMMAE on cysteines after TCEP reduction, positions not given
B11: mAb001c-vcMMAE: antibody conjugate of chimeric antibody mAb001c coupled with vcMMAE, average DAR about 3.81 (conjugate)
VH: B3 VH
VL: B2 VL with T7S, Q27H, S28N, N44K, F57S, D75Y, K79T, L98R

The molecules below were run against T1, ROR1 extracellular segment with Kringle domain removed on CHO cells (human, UniProt Q01973 30-472, limits assumed) (assay: FACS, CHO-ROR1 (with Kringle domain removed) cells). Settings: not given.
T1 construct: Transfected into CHO cells; also called CHO-ROR1 (with Kringle domain removed)
T1 sequence (Q01973 other isoform, or with tags, fused parts or gaps limits assumed): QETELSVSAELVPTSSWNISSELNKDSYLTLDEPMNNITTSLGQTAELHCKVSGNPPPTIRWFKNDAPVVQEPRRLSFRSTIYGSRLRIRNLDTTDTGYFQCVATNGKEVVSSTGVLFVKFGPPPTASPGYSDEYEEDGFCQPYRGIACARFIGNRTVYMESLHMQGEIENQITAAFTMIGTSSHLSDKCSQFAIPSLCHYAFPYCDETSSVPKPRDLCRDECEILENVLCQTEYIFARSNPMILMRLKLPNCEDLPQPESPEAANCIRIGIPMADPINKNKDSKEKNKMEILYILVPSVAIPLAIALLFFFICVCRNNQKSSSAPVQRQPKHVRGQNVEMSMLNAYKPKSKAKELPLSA

Row | Molecule | EC50 [nM]
1 | B1 | 0.84
2 | B2 | 1.03
3 | B3 | 0.38
4 | B4 | 1.59
5 | B5 | 1.5
6 | B6 | 1.62
7 | B7 | 0.79
8 | B8 | 1.74
9 | B9 | 0.91

These molecules were tested against T2, ROR1 extracellular segment sequence (including transmembrane) on CHO cells (human, UniProt Q01973 30-472) (assay: FACS, ROR1 transferred onto CHO cell surface (summing up of Example 9)). Settings: not given.
T2 construct: Cloned into pCDNA3.1 and transfected into CHO cells; also called CHO-ROR1 (extracellular segment); CHO-ROR1
T2 sequence (Q01973 30-472 limits assumed): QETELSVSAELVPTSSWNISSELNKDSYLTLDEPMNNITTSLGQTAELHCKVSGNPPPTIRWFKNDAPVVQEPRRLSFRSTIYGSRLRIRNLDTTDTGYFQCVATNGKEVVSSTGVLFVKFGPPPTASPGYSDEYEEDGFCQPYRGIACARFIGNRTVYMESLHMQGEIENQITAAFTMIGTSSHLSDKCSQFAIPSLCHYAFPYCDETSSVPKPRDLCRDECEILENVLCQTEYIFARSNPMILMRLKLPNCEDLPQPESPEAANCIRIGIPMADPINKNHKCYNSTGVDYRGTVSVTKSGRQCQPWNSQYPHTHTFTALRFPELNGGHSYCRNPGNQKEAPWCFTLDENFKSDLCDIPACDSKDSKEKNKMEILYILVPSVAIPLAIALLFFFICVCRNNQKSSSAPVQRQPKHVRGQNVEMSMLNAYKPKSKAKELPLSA

Row | Molecule | EC50 [nM]
10 | B1 | < 2
11 | B2 | < 2
12 | B3 | < 2
13 | B4 | < 2
14 | B5 | < 2
15 | B6 | < 2
16 | B8 | < 2
17 | B9 | < 2

These molecules were tested against T3, human ROR1 on the surface of tumor cells (human, UniProt Q01973 30-937) (assay: cell-based or functional assay). Settings: not given.
T3 sequence (Q01973 30-937): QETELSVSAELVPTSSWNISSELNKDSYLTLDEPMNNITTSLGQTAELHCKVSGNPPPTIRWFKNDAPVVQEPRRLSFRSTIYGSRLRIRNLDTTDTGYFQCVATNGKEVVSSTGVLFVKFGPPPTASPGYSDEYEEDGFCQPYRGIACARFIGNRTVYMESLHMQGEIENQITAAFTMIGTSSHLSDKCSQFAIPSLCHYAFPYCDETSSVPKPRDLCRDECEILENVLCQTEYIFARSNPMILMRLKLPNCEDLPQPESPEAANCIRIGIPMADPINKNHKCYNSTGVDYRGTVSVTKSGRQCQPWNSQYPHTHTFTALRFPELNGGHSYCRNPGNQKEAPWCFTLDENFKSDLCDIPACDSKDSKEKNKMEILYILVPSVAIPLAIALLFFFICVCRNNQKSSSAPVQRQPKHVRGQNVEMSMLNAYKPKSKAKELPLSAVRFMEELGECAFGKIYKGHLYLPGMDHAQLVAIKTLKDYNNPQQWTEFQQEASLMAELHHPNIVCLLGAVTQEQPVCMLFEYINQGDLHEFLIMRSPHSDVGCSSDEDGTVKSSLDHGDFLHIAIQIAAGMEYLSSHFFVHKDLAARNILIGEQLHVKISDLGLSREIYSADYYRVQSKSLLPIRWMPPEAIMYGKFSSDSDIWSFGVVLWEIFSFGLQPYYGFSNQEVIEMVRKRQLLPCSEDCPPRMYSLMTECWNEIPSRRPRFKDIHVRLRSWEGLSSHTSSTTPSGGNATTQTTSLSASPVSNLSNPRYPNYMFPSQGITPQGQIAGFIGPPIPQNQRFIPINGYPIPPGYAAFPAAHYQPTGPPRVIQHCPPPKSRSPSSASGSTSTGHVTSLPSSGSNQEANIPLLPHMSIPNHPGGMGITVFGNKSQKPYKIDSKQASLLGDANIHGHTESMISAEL

Row | Molecule | in vitro anti-proliferative activity IC50, HCC827 cells (CCK8) [nM] | in vitro anti-proliferative activity IC50, HCC1187 cells (CCK8) [nM] | in vitro anti-proliferative activity IC50, HT-29 cells (CCK8) [nM] | in vitro anti-proliferative activity IC50, MCF-7 cells (CCK8) [nM] | in vitro anti-proliferative activity IC50, MDA-MB-231 cells (CCK8) [nM] | in vitro anti-proliferative activity IC50, NCI-H446 cells (CCK8) [nM] | in vitro anti-proliferative activity IC50, NCI-N87 cells (CCK8) [nM]
18 | B10 | < 10 | < 10 | < 10 | > 100 | < 10 | < 10 | < 10

What follows are molecules tested on MDA-MB-231 tumors (assay: In vivo antitumor activity, subcutaneous tumor model). Settings: 5 mg/kg once a week, tail vein, 3 weeks, result in words.
Design: species or system immunodeficient mice (NCG or Balb/c-nude)
Description: (§1) 200 µL of cell matrix gel suspension containing 5×10^6 MDA-MB-231 and HT-29 were inoculated subcutaneously on the back of immunodeficient mice (NCG or Balb/c-nude). When the tumor volume grew to 100 to 200 mm^3, the mice were randomly divided into groups (n=10) according to the tumor volume and nude mouse weight. The mice were dosed at doses of 5 mg/kg and 2.5 mg/kg once a week through the tail vein for a total of 3 weeks, as well as a group with PBS set as a negative control. The tumor volume and nude mouse weight were measured and recorded 2 to 3 times a week to plot the tumor growth curve. The formula for calculating tumor volume (V) is: V=1/2×a×b^2, where a and b represent the length and width of the tumor, respectively.
as §1, with “5 × 10^6 MDA-MB-231, 1 × 10^7 HCC1187, 1 × 10^7 PA-1, or 5 × 10^6 NCI-N87 was” for “5×10^6 MDA-MB-231 and HT-29 were”, “300 mm3,” for “200 mm^3,”, “(n=8 to 10)” for “(n=10)”, “The formula for calculating tumor volume (V) is: V=1/2×a×b^2, where a and b represent the length and width of the tumor, respectively.” left out

Row | Molecule | inhibition of the growth of MDA-MB-231 tumors
19 | B11 | completely inhibit

What follows are molecules tested against T4, ROR1 extracellular segment with Frizzled domain removed on CHO cells (human, UniProt Q01973 30-472, limits assumed) (assay: FACS, CHO-ROR1 (with Frizzled domain removed) cells). Settings: not given.
T4 construct: Transfected into CHO cells; also called CHO-ROR1 (with Frizzled domain removed)
T4 sequence (Q01973 other isoform, or with tags, fused parts or gaps limits assumed): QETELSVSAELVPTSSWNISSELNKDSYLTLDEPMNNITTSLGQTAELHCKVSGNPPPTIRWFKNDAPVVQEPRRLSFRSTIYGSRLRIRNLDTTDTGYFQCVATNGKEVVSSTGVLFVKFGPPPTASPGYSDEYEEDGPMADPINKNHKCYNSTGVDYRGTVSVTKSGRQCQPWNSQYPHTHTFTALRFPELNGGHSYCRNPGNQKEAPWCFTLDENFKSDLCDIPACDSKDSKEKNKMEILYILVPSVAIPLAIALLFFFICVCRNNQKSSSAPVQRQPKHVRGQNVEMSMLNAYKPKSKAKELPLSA

Row | Molecule | EC50 [nM]
20 | B1 | 1.37
21 | B2 | 1.25
22 | B3 | 0.85
23 | B4 | 1.64
24 | B5 | 1.67
25 | B6 | 1.68
26 | B7 | 1.11
27 | B8 | 1.78
28 | B9 | 1.02

The molecules below were run against T5, Extracellular domain of human ROR1 protein (ROR1-ECD) (human, UniProt Q01973 30-403) (assay: ELISA, plate-coated ROR1-ECD). Settings: not given.
T5 construct: Expressed in HEK293T cells; also called human ROR1-ECD; purified human ROR1 protein extracellular segment
T5 sequence (Q01973 other isoform, or with tags, fused parts or gaps): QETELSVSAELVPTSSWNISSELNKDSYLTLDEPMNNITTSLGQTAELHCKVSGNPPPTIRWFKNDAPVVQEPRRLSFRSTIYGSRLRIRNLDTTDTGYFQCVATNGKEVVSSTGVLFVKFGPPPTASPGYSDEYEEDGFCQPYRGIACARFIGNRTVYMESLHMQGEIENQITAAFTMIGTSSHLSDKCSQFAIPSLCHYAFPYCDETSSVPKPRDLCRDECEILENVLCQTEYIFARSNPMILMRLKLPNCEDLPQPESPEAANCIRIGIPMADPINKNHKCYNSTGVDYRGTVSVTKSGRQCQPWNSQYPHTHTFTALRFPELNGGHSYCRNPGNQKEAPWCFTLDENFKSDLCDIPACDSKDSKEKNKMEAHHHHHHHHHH

Row | Molecule | EC50 [nM]
29 | B2 | 0.012
30 | B4 | 0.009
31 | B5 | 0.02
32 | B6 | 0.017
33 | B8 | 0.013

Each molecule was assayed on HT-29 tumors (assay: In vivo antitumor activity, subcutaneous tumor model). Settings: 5 mg/kg and 2.5 mg/kg once a week, tail vein, 3 weeks, result in words.
Design: species or system immunodeficient mice (NCG or Balb/c-nude)
Description: as §1

Row | Molecule | inhibition of the growth of HT-29 tumors
34 | B11 | significantly and dose-dependently inhibited

What follows are molecules tested against T3, human ROR1 on the surface of tumor cells (assay: FACS, MDA-MB-231 cells). Settings: not given.

Row | Molecule | EC50 [nM]
35 | B2 | 0.25
36 | B4 | 0.4
37 | B5 | 0.78
38 | B6 | 0.33
39 | B8 | 1.1

Biological target: T5, Extracellular domain of human ROR1 …
Assay: ELISA, plate-coated ROR1-ECD
Settings: not given
Remark: another data set of the same source

Row | Molecule | EC50 [nM]
40 | B1 | 0.012
41 | B3 | 0.012
42 | B7 | 0.013
43 | B9 | 0.009

Biological target: T3, human ROR1 on the surface of tumor cells
Assay: FACS, MDA-MB-231 cells
Settings: not given
Remark: another data set of the same source

Row | Molecule | EC50 [nM]
44 | B1 | 0.4
45 | B3 | 0.15
46 | B7 | 0.21
47 | B9 | 0.24

Each molecule was assayed against T6, ROR1 extracellular segment with Ig-like domain removed on CHO cells (human, UniProt Q01973 30-472, limits assumed) (assay: FACS, CHO-ROR1 (with Ig-like domain removed) cells). Settings: not given.
T6 construct: Transfected into CHO cells; also called CHO-ROR1 (with Ig-like domain removed)
T6 sequence (Q01973 other isoform, or with tags, fused parts or gaps limits assumed): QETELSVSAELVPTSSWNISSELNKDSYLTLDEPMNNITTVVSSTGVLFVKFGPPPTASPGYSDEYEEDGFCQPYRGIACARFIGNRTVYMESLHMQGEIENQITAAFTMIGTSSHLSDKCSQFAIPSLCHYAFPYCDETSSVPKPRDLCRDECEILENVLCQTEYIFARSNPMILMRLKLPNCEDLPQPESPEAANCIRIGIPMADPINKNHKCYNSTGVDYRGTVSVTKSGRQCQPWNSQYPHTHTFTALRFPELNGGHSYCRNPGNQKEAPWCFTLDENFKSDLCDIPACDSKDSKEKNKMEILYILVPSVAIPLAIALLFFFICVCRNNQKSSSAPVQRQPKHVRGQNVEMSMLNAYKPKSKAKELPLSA

Row | Molecule | EC50 [nM]
48 | B1 | 0.35
49 | B2 | 0.36
50 | B3 | 0.36
51 | B4 | 0.37
52 | B5 | 0.37
53 | B6 | 0.45

The molecules below were run against T2, ROR1 extracellular segment sequence … (assay: FACS, CHO-ROR1 (extracellular segment) cells). Settings: not given.

Row | Molecule | EC50 [nM]
54 | B2 | 0.54
55 | B4 | 0.71
56 | B5 | 0.7
57 | B6 | 0.79
58 | B8 | 1.47

The molecules below were run against T3, human ROR1 on the surface of tumor cells (assay: FACS, NCI-H226 cells). Settings: not given.

Row | Molecule | EC50 [nM]
59 | B1 | 0.46
60 | B3 | 0.11
61 | B7 | 0.13
62 | B9 | 0.18

Biological target: T3, human ROR1 on the surface of tumor cells
Assay: FACS, NCI-H226 cells
Settings: not given
Remark: another data set of the same source

Row | Molecule | EC50 [nM]
63 | B2 | 0.28
64 | B4 | 0.28
65 | B5 | 0.36
66 | B6 | 0.25
67 | B8 | 0.76

Biological target: T2, ROR1 extracellular segment sequence …
Assay: FACS, CHO-ROR1 (extracellular segment) cells
Settings: not given
Remark: another data set of the same source

Row | Molecule | EC50 [nM]
68 | B1 | 0.32
69 | B3 | 0.32
70 | B7 | 0.74
71 | B9 | 0.57

— patent EP4585616A1, “ANTIBODY CAPABLE OF SPECIFICALLY BINDING TO ROR1, […] THEREOF, AND PREPARATION METHOD THEREFOR AND USE THEREOF” (Hefei Institutes of Physical Science, Chinese Academy of …, priority 2022, dated 2024)
